Target: Prostate-Specific Membrane Antigen (PSMA), as expressed on LNCaP cells (human, UniProt Q04609 1-750)
Experiment: cell-based or functional assay

Chain of Prostate-Specific Membrane Antigen (PSMA), as expressed on LNCaP cells (Q04609 whole entry): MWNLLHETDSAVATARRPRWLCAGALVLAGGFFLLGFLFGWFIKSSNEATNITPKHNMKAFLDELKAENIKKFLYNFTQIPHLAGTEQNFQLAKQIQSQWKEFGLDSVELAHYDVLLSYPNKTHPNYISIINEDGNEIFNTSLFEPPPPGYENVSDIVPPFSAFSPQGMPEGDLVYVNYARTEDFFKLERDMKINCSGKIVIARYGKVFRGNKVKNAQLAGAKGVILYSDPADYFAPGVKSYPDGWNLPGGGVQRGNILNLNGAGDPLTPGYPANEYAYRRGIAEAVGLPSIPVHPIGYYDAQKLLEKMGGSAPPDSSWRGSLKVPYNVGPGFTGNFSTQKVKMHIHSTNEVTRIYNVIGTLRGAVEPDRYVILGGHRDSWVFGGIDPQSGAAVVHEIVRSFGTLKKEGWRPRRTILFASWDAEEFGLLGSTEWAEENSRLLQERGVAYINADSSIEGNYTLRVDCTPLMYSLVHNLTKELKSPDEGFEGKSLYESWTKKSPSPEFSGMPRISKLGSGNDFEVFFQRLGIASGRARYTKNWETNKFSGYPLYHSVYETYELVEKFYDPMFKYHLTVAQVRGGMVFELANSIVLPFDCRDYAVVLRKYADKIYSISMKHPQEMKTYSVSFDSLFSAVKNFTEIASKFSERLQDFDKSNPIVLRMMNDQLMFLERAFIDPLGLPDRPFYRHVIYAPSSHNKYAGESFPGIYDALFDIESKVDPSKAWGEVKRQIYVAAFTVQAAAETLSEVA

B1: HAKA-A (ADC of J415RHA+J415RKA anti-PSMA antibody conjugated to drug linker A) (antibody, V domains shown)
VH: EVQLVESGGGLVQPGGSLKLSCAASGFTFSNYWMNWVRQASGKGLEWVGEIRSQSNNFATHYAESVKGRFTISRDDSKNTAYLQMNSLKTEDTAVYYCTRRWNNFWGQGTTVTVSS
VL: DIQMTQSPSSVSASVGDRVTITCKASENVGTYVSWYQQKPGTAPKLLIYGASNRFTGVPSRFSGSGSATDFTLTINNLQPEDFATYYCGQSYTFPYTFGQGTKVEIK
modifications: PBD drug linker A conjugated to reduced cysteine thiols (positions not stated); measured DAR 1.17 per antibody
EC50 (µg/mL), in vitro cytotoxicity on LNCaP cells (Alamar Blue cell survival, 4-day incubation): 0.00186 µg/mL

B2: HAKB-A (ADC of J415RHA+J415RKB anti-PSMA antibody conjugated to drug linker A) (antibody, V domains shown)
VH: EVQLVESGGGLVQPGGSLKLSCAASGFTFSNYWMNWVRQASGKGLEWVGEIRSQSNNFATHYAESVKGRFTISRDDSKNTAYLQMNSLKTEDTAVYYCTRRWNNFWGQGTTVTVSS
VL: DIQMTQSPSSVSASVGDRVTITCKASENVGTYVSWYQQKPGTAPKLLIYGASNRFTGVPSRFSGSGSATDFTLTINNLQPEDFATYYCGQSYTFPYTFGQGTKVEIK
modifications: PBD drug linker A conjugated to reduced cysteine thiols (positions not stated); measured DAR 1.86 per antibody
EC50 (µg/mL), in vitro cytotoxicity on LNCaP cells (Alamar Blue cell survival, 4-day incubation): 0.00163 µg/mL

— patent US20210137940A1 (AstraZeneca / MedImmune, published 2021)
